Test results published in patent publication US20200277375A1 (ULTRAHUMAN FOUR, published 2020).
Where a chain is given by its changes, count along the chain named. Numbers in names are those of the source.

B1: G-B6 in human IgG4(S228P) format (antibody, V domains shown)
VH: EVQLVQSGAEVKKPGESLKISCKGSGYSFTNYYIFWVRQMPGKGLEWIGDINPVNGDTNFSPSFQGQVTISADKSISTAYLQWSSLKASDTAMYYCARGGYTMDKWGQGTLVTVSS
VL: DIVMTQSPLSLPVTPGEPASISCRSSQSLVHSNGYTYLHWYLQKPGQSPQLLIYKGSYRASGVPDRFSGSGSGTDFTLKISRVEAEDVGVYYCSQNTQTPRTFGQGTKVEIK
notes: IgG4(S228P), kappa; also called G-B6 IgG4
B2: F-E7 in human IgG4(S228P) format (antibody, V domains shown)
VH: B1 VH with I48M, D50I, F60Y, S61N, D104G
VL: B1 VL with Y35N, H39D, A60F, N96A, Q98H
notes: IgG4(S228P), kappa; also called F-E7 IgG4
B3: VH-A1/VL-B1 in human IgG4(S228P) format (antibody, V domains shown)
VH: B1 VH with I48M, D50I, N55D, N59R, F60Y, Y101F, K105Y
VL: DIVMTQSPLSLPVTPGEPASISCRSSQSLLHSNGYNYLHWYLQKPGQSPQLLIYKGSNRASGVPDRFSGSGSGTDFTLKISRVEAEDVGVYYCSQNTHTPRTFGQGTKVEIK
notes: IgG4(S228P), kappa; also called VH-A1/VL-B1 IgG4
B4: D-H3 in human IgG4(S228P) format (antibody, V domains shown)
VH: B1 VH with I48M, F60Y, M103P, K105Y
VL: B1 VL with V30L, T36N, Y58N, A60F, T97L, Q98H, T99V
notes: IgG4(S228P), kappa; also called D-H3 IgG4
B5: A-D5 in human IgG4(S228P) format (antibody, V domains shown)
VH: B1 VH with S28T, I48M, D50I, N55D, F60Y, S61N, K105R
VL: B1 VL with V30L, G56V, Y58N, A60L, S94F, Q98H
notes: IgG4(S228P), kappa; also called IgG4 A-D5
B6: mVH/mVL (chimeric VxP037) in human IgG4(S228P) format (antibody, V domains shown)
VH: EVQLQQFGAELVKPGASMKLSCKASGYTFTNYYVFWVKQRPGQGLEWIGDINPVNGDTNFNEKFKNKATLTVDKSSTTTYLQLSSLTSEDSAVYYCTRGGYTMDYWGQGTLVTVSS
VL: DVVMTQTPLSLSVSLGDQASISCRSSQSLVHSNGNTYLHWYLQKPGQSPKLLIYKVSYRFSGVPDRFSGSGSGTDFTLKISRVEAEDLGVYFCSQNTHVPRTFGQGTKVEIK
notes: IgG4 with S228P; also called mVH/mVL IgG4
B7: A-D5.9 in human IgG1null format (antibody, V domains shown)
VH: B1 VH with S28T, I48M, D50I, N55D, F60Y, S61N, K105R
VL: B1 VL with V30L, G56V, Y58N, A60L, S94F, N96Q, Q98H
notes: Designer clone from A-D5; IgG1null
B8: A-D5.1 in human IgG1null format (antibody, V domains shown)
VH: B1 VH with I48M, D50I, N55D, F60Y, S61N, K105R
VL: B1 VL with V30L, G56V, Y58N, A60L, S94F, Q98H
notes: as for B7
B9: A-D5.10 in human IgG1null format (antibody, V domains shown)
VH: B1 VH with S28T, I48M, D50I, N55D, F60Y, S61N, K105R
VL: B1 VL with V30L, N33Q, G56V, Y58N, A60L, S94F, N96Q, Q98H
notes: as for B7
B10: A-D5.3 in human IgG1null format (antibody, V domains shown)
VH: B1 VH with I48M, D50I, N55D, N59R, F60Y, K105R
VL: B1 VL with V30L, G56V, Y58N, A60L, S94F, Q98H
notes: as for B7
B11: A-D5.6 in human IgG1null format (antibody, V domains shown)
VH: B1 VH with S28T, I48M, D50I, N55D, F60Y, S61N, K105R
VL: B1 VL with V30L, T36N, Y58N, A60L, S94F
notes: as for B7
B12: A-D5.5 in human IgG1null format (antibody, V domains shown)
VH: B1 VH with S28T, I48M, D50I, N55D, F60Y, S61N, K105R
VL: B1 VL with V30L, T36N, Y58N, A60L, S94F, Q98H
notes: as for B7

Molecular target: T1, human CD47 on cells (human CD47-transfected CHO-K1; HL60) (human, UniProt Q08722 19-323)
T1 construct: whole, on cells; also called human CD47+ cells; human CD47+HL60 cells
Experiment: flow cytometry, human CD47-transfected CHO-K1, FIG. 6
Procedure: (§1) FIG. 6A-FIG. 6C. Flow cytometric binding to human and cyno CD47+CHO-K1 cells. Commercial anti-CD47 antibody MS1991, human IgG1 (“I IgG1”) and IgG4 (“I IgG4”) Isotype controls, lead library-derived IgGs in both IgG1null (“IgG1N”) and IgG4(S228P) formats were examined for specific binding on cyno-transfected CHO-K1 cells (FIG. 6A), human-transfected CHO-K1 cells (FIG. 6B), and wild type (wt, i.e. untransfected) CHO-K1 cells (FIG. 6C). IgGs were tested at concentrations ranging from 24-100,000 ng/ml. Concentration-dependent binding was observed against both human and cyno cell lines for all CD47-specific antibodies but not Isotype controls.
(§2) Antibodies to CD47 were analysed for concentration-dependent binding at the cell surface via flow cytometry. CHO-K1 cells were stably transfected with either human, mouse or cyno CD47 full-length cDNAs. Anti-CD47 IgGs mVH/mVL, VH-A1/VL-B1, A-D5, G-B6, F-E7 and D-H3, and an isotype control IgG1 were then all tested in IgG1null and IgG4(S228P) formats, alongside a commercial mouse anti-human CD47 monoclonal MS1991, over a concentration range of 100,000-24 ng/ml for binding to human, cyno or wild type control (‘wt’, i.e. untransfected) CHO-K1.

maximum MFI, fold over untransfected CHO-K1 [fold]	Binder
> 10	B1
> 10	B2
> 10	B3
> 10	B4
> 10	B5
> 10	B6

Molecular target: T2, human CD47-Fc (human, UniProt Q08722 19-139)
T2 construct: Recombinant CD47-Fc; also called hCD47-Fc; not shown: Fc part
Experiment: direct titration ELISA, FIG. 9A
Procedure: FIG. 9A-FIG. 9C. Direct titration ELISA for designer IgGs binding to human, mouse and cyno CD47-Fc proteins. Chimeric anti-CD47 (mVH/mVL), designer A-D5-derived clones in human IgG1null format were titrated (in μg/ml) in a direct binding ELISA against human (FIG. 9A), cyno (FIG. 9B) and mouse (FIG. 9C) CD47-Fc proteins. […] In the figure legend, “IgG1NI” refers to IgG1 null isotype.
To coat Greiner Bio-One High bind ELISA plates, target proteins were diluted to 1 μg/ml in carbonate buffer and added at 100 μl per well, at 4° C., o/n. Coated plates were washed 3× with PBS pH7.4, blocked with 1% BSA in PBS (380 μl/well) for 1 hr at RT, then washed 3× with PBS-Tween 20 (PBST). CD47 antibodies (100 μl/well; diluted in PBST) were then added and then incubated 1 hr at RT. Plates were then washed 3× with PBST and goat anti-human kappa chain-HRP added (100 μl/well) at RT, for 1 hr. Plates were then washed 3× with PBST and twice with PBS before the addition of 100 μl TMB per well. Reactions were stopped by adding 100 μl 2M H₂SO₄/well and OD was read on a plate reader at 450 nm.

binding result	Binder
binds	B7
binds	B8
binds	B9
binds	B10
binds	B11
binds	B12

Molecular target: T3, cynomolgus monkey CD47 on transfected CHO-K1 cells (cynomolgus monkey, UniProt A0A5F8AK49 19-323 (rhesus entry))
T3 construct: whole, on cells; also called cyno CD47+ cells
Experiment: flow cytometry, cyno CD47-transfected CHO-K1, FIG. 6
Procedure: as §1, §2

maximum MFI, fold over untransfected CHO-K1 [fold]	Binder
> 10	B1
> 10	B2
> 10	B3
> 10	B4
> 10	B5
> 10	B6
